# B1: 20H4.9-mIgG1/20H4.9LC-mk0 (antibody)
# heavy: QVQLQQWGAGLLKPSETLSLTCAVYGGSFSGYYWSWIRQSPEKGLEWIGEINHGGYVTYNPSLESRVTISVDTSKNQFSLKLSSVTAADTAVYYCARDYGPGNYDWYFDLWGRGTLVTVSSAKTTPPSVYPLAPGSAAQTNSMVTLGCLVKGYFPEPVTVTWNSGSLSSGVHTFPAVLQSDLYTLSSSVTVPSSTWPSETVTCNVAHPASSTKVDKKIVPRDCGCKPCICTVPEVSSVFIFPPKPKDVLTITLTPKVTCVVVDISKDDPEVQFSWFVDDVEVHTAQTQPREEQFNSTFRSVSELPIMHQDWLNGKEFKCRVNSAAFPAPIEKTISKTKGRPKAPQVYTIPPPKEQMAKDKVSLTCMITDFFPEDITVEWQWNGQPAENYKNTQPIMDTDGSYFVYSKLNVQKSNWEAGNTFTCSVLHEGLHNHHTEKSLSHSPGK
# light: EIVLTQSPATLSLSPGERATLSCRASQSVSSYLAWYQQKPGQAPRLLIYDASNRATGIPARFSGSGSGTDFTLTISSLEPEDFAVYYCQQRSNWPPALTFGGGTKVEIKRADAAPTVSIFPPSSEQLTSGGASVVCFLNNFYPKDINVKWKIDGSERQNGVLNSWTDQDSKDSTYSMSSTLTLTKDEYERHNSYTCEATHKTSTSPIVKSFNRNEC
# notes: also called NS1-mIgG1
# Experiments:
# hCD137 (FXa digested) [1] = target: T1, hCD137 (FXa digested) (human, UniProt Q07011 24-186); assay: SPR 37C, no ATP
# T1 construct: Factor Xa digestion and Protein A removed the Fc; also called human CD137 extracellular domain
# T1 sequence (Q07011 other isoform, or with tags, fused parts or gaps limits assumed): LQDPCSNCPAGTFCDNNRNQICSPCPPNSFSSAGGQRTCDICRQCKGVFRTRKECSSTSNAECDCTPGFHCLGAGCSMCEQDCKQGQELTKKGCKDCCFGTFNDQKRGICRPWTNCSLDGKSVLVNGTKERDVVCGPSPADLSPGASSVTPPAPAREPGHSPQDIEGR
# Description: (§1) Measurements of human CD137 binding were taken at 37° C. using 20 mM ACES (pH 7.4), 150 mM NaCl, 2 mM MgCl₂, and 0.05% Tween20 as running buffer. At first, antibodies were captured by interacting antibody solutions prepared in running buffer with the rabbit anti-mouse IgG (Thermo Scientific)-immobilized Series S Sensor Chip CM5 (GE Healthcare). The human CD137-binding activity in the presence of ATP and in the absence of ATP was then assessed by interacting with a human CD137 solution prepared in running buffer supplemented with a desired concentration of ATP, or a human CD137 solution prepared in running buffer without ATP. […] The chip was regenerated using 25 mM NaOH and 10 mM Glycine-HCl (pH 1.5), and measurements were performed by repeatedly capturing antibodies. Dissociation constant (KD) of the respective antibodies for human CD137 was calculated using Biacore T200 Evaluation Software 2.0. Specifically, the association rate constant ka (L/mol/s) and the dissociation rate constant kd (1/s) were calculated by global fitting of the sensorgrams obtained by measurement with the 1:1 Langmuir binding model, and the dissociation constant KD (mol/L) was calculated from these values.
# hCD137 (FXa digested) [2] = target: T1, hCD137 (FXa digested); assay: SPR 37C, 1 uM ATP
# Description: as §1
# hCD137 (FXa digested) [3] = target: T1, hCD137 (FXa digested); assay: SPR 37C, 10 uM ATP
# Description: as §1
# hCD137 (FXa digested) [4] = target: T1, hCD137 (FXa digested); assay: SPR 37C, 100 uM ATP
# Description: as §1
binder,measurement,setting,value
B1,Kd,hCD137 (FXa digested) [1],61.7 nM
same,Kd,hCD137 (FXa digested) [2],56.2 nM
same,Kd,hCD137 (FXa digested) [3],54.4 nM
same,Kd,hCD137 (FXa digested) [4],53.6 nM

# From patent publication US20230272099A1 (Chugai, published 2023)
